B1: CTF1: COUP-TF1 (NR2F1), cDNA driver (protein, UniProt P10589 1-423, looked up)
COUP transcription factor 1: MAMVVSSWRDPQDDVAGGNPGGPNPAAQAARGGGGGAGEQQQQAGSGAPHTPQTPGQPGAPATPGTAGDKGQGPPGSGQSQQHIECVVCGDKSSGKHYGQFTCEGCKSFFKRSVRRNLTYTCRANRNCPIDQHHRNQCQYCRLKKCLKVGMRREAVQRGRMPPTQPNPGQYALTNGDPLNGHCYLSGYISLLLRAEPYPTSRYGSQCMQPNNIMGIENICELAARLLFSAVEWARNIPFFPDLQITDQVSLLRLTWSELFVLNAAQCSMPLHVAPLLAAAGLHASPMSADRVVAFMDHIRIFQEQVEKLKALHVDSAEYSCLKAIVLFTSDACGLSDAAHIESLQEKSQCALEEYVRSQYPNQPSRFGKLLLRLPSLRTVSSSVIEQLFFVRLVGKTPIETLIRDMLLSGSSFNWPYMSIQCS
B2: ERR3: Estrogen Related Receptor γ (NR3B3, ERRg), cDNA driver (protein, UniProt P62508 1-458, looked up)
Estrogen-related receptor …: MDSVELCLPESFSLHYEEELLCRMSNKDRHIDSSCSSFIKTEPSSPASLTDSVNHHSPGGSSDASGSYSSTMNGHQNGLDSPPLYPSAPILGGSGPVRKLYDDCSSTIVEDPQTKCEYMLNSMPKRLCLVCGDIASGYHYGVASCEACKAFFKRTIQGNIEYSCPATNECEITKRRRKSCQACRFMKCLKVGMLKEGVRLDRVRGGRQKYKRRIDAENSPYLNPQLVQPAKKPYNKIVSHLLVAEPEKIYAMPDPTVPDSDIKALTTLCDLADRELVVIIGWAKHIPGFSTLSLADQMSLLQSAWMEILILGVVYRSLSFEDELVYADDYIMDEDQSKLAGLLDLNNAILQLVKKYKSMKLEKEEFVTLKAIALANSDSMHIEDVEAVQKLQDVLHEALQDYEAGQHMEDPRRAGKMLMTLPLLRQTSTKAVQHFYNIKLEGKVPMHKLFLEMLEAKV
B3: TR4: Testicular Orphan Nuclear Receptor 4 (NR2C2), cDNA driver (protein, UniProt P49116 1-596, looked up)
Nuclear receptor subfamily 2 …: MTSPSPRIQIISTDSAVASPQRIQIVTDQQTGQKIQIVTAVDASGSPKQQFILTSPDGAGTGKVILASPETSSAKQLIFTTSDNLVPGRIQIVTDSASVERLLGKTDVQRPQVVEYCVVCGDKASGRHYGAVSCEGCKGFFKRSVRKNLTYSCRSNQDCIINKHHRNRCQFCRLKKCLEMGMKMESVQSERKPFDVQREKPSNCAASTEKIYIRKDLRSPLIATPTFVADKDGARQTGLLDPGMLVNIQQPLIREDGTVLLATDSKAETSQGALGTLANVVTSLANLSESLNNGDTSEIQPEDQSASEITRAFDTLAKALNTTDSSSSPSLADGIDTSGGGSIHVISRDQSTPIIEVEGPLLSDTHVTFKLTMPSPMPEYLNVHYICESASRLLFLSMHWARSIPAFQALGQDCNTSLVRACWNELFTLGLAQCAQVMSLSTILAAIVNHLQNSIQEDKLSGDRIKQVMEHIWKLQEFCNSMAKLDIDGYEYAYLKAIVLFSPDHPGLTSTSQIEKFQEKAQMELQDYVQKTYSEDTYRLARILVRLPALRLMSSNITEELFFTGLIGNVSIDSIIPYILKMETAEYNGQITGASL
B4: Erb: Estrogen Receptor β (NR3A2, ERb), cDNA driver (protein, UniProt Q92731 1-530, looked up)
Estrogen receptor beta: MDIKNSPSSLNSPSSYNCSQSILPLEHGSIYIPSSYVDSHHEYPAMTFYSPAVMNYSIPSNVTNLEGGPGRQTTSPNVLWPTPGHLSPLVVHRQLSHLYAEPQKSPWCEARSLEHTLPVNRETLKRKVSGNRCASPVTGPGSKRDAHFCAVCSDYASGYHYGVWSCEGCKAFFKRSIQGHNDYICPATNQCTIDKNRRKSCQACRLRKCYEVGMVKCGSRRERCGYRLVRRQRSADEQLHCAGKAKRSGGHAPRVRELLLDALSPEQLVLTLLEAEPPHVLISRPSAPFTEASMMMSLTKLADKELVHMISWAKKIPGFVELSLFDQVRLLESCWMEVLMMGLMWRSIDHPGKLIFAPDLVLDRDEGKCVEGILEIFDMLLATTSRFRELKLQHKEYLCVKAMILLNSSMYPLVTATQDADSSRKLAHLLNAVTDALVWVIAKSGISSQQQSMRLANLLMLLSHVRHASNKGMEHLLNMKCKNVVPVYDLLLEMLNAHVLRGCKSSITGSECSPAEDSKSKEGSQNPQSQ
B5: CTF3: COUP-TF3 (NR2F6), cDNA driver (protein, UniProt P10588 1-404, looked up)
Nuclear receptor subfamily 2 …: MAMVTGGWGGPGGDTNGVDKAGGYPRAAEDDSASPPGAASDAEPGDEERPGLQVDCVVCGDKSSGKHYGVFTCEGCKSFFKRSIRRNLSYTCRSNRDCQIDQHHRNQCQYCRLKKCFRVGMRKEAVQRGRIPHSLPGAVAASSGSPPGSALAAVASGGDLFPGQPVSELIAQLLRAEPYPAAAGRFGAGGGAAGAVLGIDNVCELAARLLFSTVEWARHAPFFPELPVADQVALLRLSWSELFVLNAAQAALPLHTAPLLAAAGLHAAPMAAERAVAFMDQVRAFQEQVDKLGRLQVDSAEYGCLKAIALFTPDACGLSDPAHVESLQEKAQVALTEYVRAQYPSQPQRFGRLLLRLPALRAVPASLISQLFFMRLVGKTPIETLIRDMLLSGSTFNWPYGSGQ
B6: CTF2: COUP-TF2 (NR2F2), cDNA driver (protein, UniProt P24468 1-414, looked up)
COUP transcription factor 2: MAMVVSTWRDPQDEVPGSQGSQASQAPPVPGPPPGAPHTPQTPGQGGPASTPAQTAAGGQGGPGGPGSDKQQQQQHIECVVCGDKSSGKHYGQFTCEGCKSFFKRSVRRNLSYTCRANRNCPIDQHHRNQCQYCRLKKCLKVGMRREAVQRGRMPPTQPTHGQFALTNGDPLNCHSYLSGYISLLLRAEPYPTSRFGSQCMQPNNIMGIENICELAARMLFSAVEWARNIPFFPDLQITDQVALLRLTWSELFVLNAAQCSMPLHVAPLLAAAGLHASPMSADRVVAFMDHIRIFQEQVEKLKALHVDSAEYSCLKAIVLFTSDACGLSDVAHVESLQEKSQCALEEYVRSQYPNQPTRFGKLLLRLPSLRTVSSSVIEQLFFVRLVGKTPIETLIRDMLLSGSSFNWPYMAIQ
B7: ERR2: Estrogen Related Receptor β (NR3B2, ERRb), cDNA driver (protein, UniProt O95718 1-433, looked up)
Steroid hormone receptor ERR2: MSSDDRHLGSSCGSFIKTEPSSPSSGIDALSHHSPSGSSDASGGFGLALGTHANGLDSPPMFAGAGLGGTPCRKSYEDCASGIMEDSAIKCEYMLNAIPKRLCLVCGDIASGYHYGVASCEACKAFFKRTIQGNIEYSCPATNECEITKRRRKSCQACRFMKCLKVGMLKEGVRLDRVRGGRQKYKRRLDSESSPYLSLQISPPAKKPLTKIVSYLLVAEPDKLYAMPPPGMPEGDIKALTTLCDLADRELVVIIGWAKHIPGFSSLSLGDQMSLLQSAWMEILILGIVYRSLPYDDKLVYAEDYIMDEEHSRLAGLLELYRAILQLVRRYKKLKVEKEEFVTLKALALANSDSMYIEDLEAVQKLQDLLHEALQDYELSQRHEEPWRTGKLLLTLPLLRQTAAKAVQHFYSVKLQGKVPMHKLFLEMLEAKV

How the values were obtained:
[1] = system: mUCP1 promoter; test: NHR-promoter luciferase screen, mUCP1 promoter; assay type: cell-based, mouse; details: for Luc. act., normalized to lacZ / Normalized Luc. act., normalized to control: mUCP1 promoter reporter, co-transfected HR, with or without its ligand; for Normalized Luc. act., normalized to control: relative to control; for luciferase activity normalized to lacZ activity and to a control, mUCP!: mUCP! promoter-luciferase, CV-1 cells, NHR +/- ligand, control = 1.00
How it was run: (§1)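 CV-1 cells were co-transfected with 50 ng NHR (homodimer or NHR/RXR heterodimer), 100 ng promoter-luciferase construct and 50 ng LacZ. Luciferase was normalized to LacZ and to a no-NHR/no-ligand control.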

[2] = system: hTNFa promoter; test: NHR-promoter luciferase screen, hTNFa promoter; assay type: cell-based, human; details: for Luc. act., normalized to lacZ / Normalized Luc. act., normalized to control: TNFa promoter, HR component without or with ligand; for hTNFa promoter reporter activity: transcription factor +/- ligand, control = 1.00
How it was run: as §1

Molecule	Luc. act., normalized to lacZ [1]	Normalized Luc. act., normalized to control [1]	luciferase activity normalized to lacZ activity and to a control, mUCP! [1]	Luc. act., normalized to lacZ [2]	Normalized Luc. act., normalized to control [2]	hTNFa promoter reporter activity [2]
B1	1.8	0.4	0.41	728.5	0.7	0.74
B2	26.5	6.0	5.98	2705.8	2.8	2.75
B3	26.4	5.9	5.94	1189.6	1.2	1.21
B4	3.3	0.8	0.75	811.5	0.8	0.83
B5	1.9	0.4	0.42	932.4	0.9	0.95
B6	1.9	0.4	0.43	1014.3	1.0	1.03
B7	13.1	3.0	2.95	1655.6	1.7	1.68

— US20110263454A1, “Methods of Identifying Functional Characteristics of Promoters, Transcription Modifying Proteins and Transcription Modulating Agents” (Salk Institute for Biological Studies, priority 2008, published 2011)
